This is an account of results in US20260125477A1 (BEIJING MABWORKS BIOTECH, published 2026).

B1: 6B5 (antibody, human IgG1, kappa, V domains shown)
VH: QVQLVESGPGLVKPSQTLSLTCTVSDGSISSGGYYWSWIRQHPGKGLEWIGYIYYSGGTYYSPSLKSRVTISVDTSKNQFSLKLTSVTAADTAVYYCARRAGYSSSFDSWGQGILVTVSS
VL: EIVLTQSPLSLPVTPGEPASISCRSSQSLLYSNGYTYLDWYLQKPGQSPQFLIYLGFNRASGVPDRFSGSGSGTDFTLKISRVEAEDVGVYYCMQGLQTPYTFGQGTKLEIKR
notes: also called 6B5-WT; Ab6B5
B2: Enoblituzumab (antibody, human IgG1, kappa, V domains shown)
VH: EVQLVESGGGLVQPGGSLRLSCAASGFTFSSFGMHWVRQAPGKGLEWVAYISSDSSAIYYADTVKGRFTISRDNAKNSLYLQMNSLRDEDTAVYYCGRGRENIYYGSRLDYWGQGTTVTVSS
VL: DIQLTQSPSFLSASVGDRVTITCKASQNVDTNVAWYQQKPGKAPKALIYSASYRYSGVPSRFSGSGSGTDFTLTISSLQPEDFATYYCQQYNNYPFTFGQGTKLEIKR
notes: Humanized anti-B7-H3 antibody of MacroGenics with optimised Fc, used as the positive control; also called AbEno; enoblituzumab-IgG1-Mut
B3: 10D7 (antibody, human IgG1, kappa, V domains shown)
VH: QVQLVQSGPGLVKPSETLSLTCTVSGGSISRSSYYWGWIRQPPGKGLEWIGNIFYAGSTYYNPSLKSRVTISVDTSKNQFSLKLSSVTAADTAVYYCARRITGTTGWFDPWGQGTLVTVSS
VL: DIQLTQSPSSLSASVGDRVTITCRASQGIRNDLGWYQQKPGKAPKLLIYAASTLQSGVPSRFSGSGSGTDFTLTISSLQPEDFATYYCLQDYNYPRTFGQGTKVEIKR
notes: also called 10D7-WT; Ab10D7
B4: 10F5 (antibody, human IgG1, kappa, V domains shown)
VH: QVQLVQSGAEVKKPGSSVKVSCKASGGTFSSQAISWVRQAPGQGLEWMGRIIPMLGIGDYAQSFQGRVTITADKSTSTAYLEVSSLGSEDTAVYYCAREGIAALGTNYYYGMDVWGQGTAVTVSS
VL: EIVMTQSPSSVSASVGDRVTITCRASQGISRWLAWYQQKPGKAPKLLIYVASSLQSGVPSRFSGSGSGTDFTLTISSLQPEDFATYYCQQANSFPFTFGPGTKVDIRR
notes: also called Ab10F5

One experiment addresses T1, recombinant human CD80 protein (human B7-1/CD80 protein, with His tag) (human, UniProt P33681 35-242).
T1 construct: Bought protein
T1 sequence (looked up): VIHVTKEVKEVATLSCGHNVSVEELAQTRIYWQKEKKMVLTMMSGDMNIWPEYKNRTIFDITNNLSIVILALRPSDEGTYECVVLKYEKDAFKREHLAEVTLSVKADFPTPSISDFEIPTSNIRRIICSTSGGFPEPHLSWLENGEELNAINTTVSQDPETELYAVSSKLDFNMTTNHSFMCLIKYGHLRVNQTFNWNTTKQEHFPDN
Description: SPR (Biacore T200), antibody captured on Protein A chip, response at 200 nM antigen. As for the experimental part: (§1) The anti-human B7-H3 antibodies were tested for their binding capability to B7 family proteins by SPR using Biacore T200 biosensor (Biacore, US) provided with a pre-fixed Protein A sensor chip.
(§2) The dissociation was monitored for 600 sec. The data was analyzed using Biacore 8k evaluation software version 3.0, to obtain the binding responses, and the protein concentration-binding response curves were plotted, to determine the cross-reaction of the anti-human B7-H3 antibodies to the B7 family proteins.
Background: In SPR one partner is held on a chip, and binding of the other changes the refractive index at the surface.
For the molecule B1, the “Response (RU)” value turned out to be 0.6 RU.

B2: the “Response (RU)” value was -1.8 RU.

For the molecule B3, the “Response (RU)” value was determined as 0.2 RU.

Regarding B4, the “Response (RU)” value amounted to 0.7 RU.

The target in a further experiment is T2, human B7-H5/Gi24/VISTA protein, with His tag (MALS verified) (human, UniProt Q9H7M9 33-194).
T2 construct: Bought protein
T2 sequence (looked up): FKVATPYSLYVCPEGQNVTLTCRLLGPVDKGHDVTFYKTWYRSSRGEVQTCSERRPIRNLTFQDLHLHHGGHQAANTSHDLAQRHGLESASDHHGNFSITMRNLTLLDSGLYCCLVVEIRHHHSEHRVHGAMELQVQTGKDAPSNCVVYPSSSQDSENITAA
The description is as above. As for the experimental part: as §1, §2
In the case of B1, the “Response (RU)” value turned out to be 0.9 RU.

B2: the “Response (RU)” value was -1.8 RU.

Consider B3, for which the “Response (RU)” value was 0.6 RU.

Take B4: the “Response (RU)” value is 0.6 RU.

Another experiment has as its target T3, mouse B7-H3/CD276 protein, with His tag (mouse, UniProt Q8VE98 29-244, limits assumed).
T3 construct: Bought protein
T3 sequence (looked up): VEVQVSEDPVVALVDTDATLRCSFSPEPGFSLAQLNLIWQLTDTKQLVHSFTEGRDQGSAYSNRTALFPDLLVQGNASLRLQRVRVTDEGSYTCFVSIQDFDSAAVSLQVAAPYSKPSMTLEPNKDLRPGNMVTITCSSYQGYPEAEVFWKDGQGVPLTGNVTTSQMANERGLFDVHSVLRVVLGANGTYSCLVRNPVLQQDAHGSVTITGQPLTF
The experiment is described as follows: SPR (Biacore T200), antibody captured on Protein A chip. As for the experimental part:
(§3) The fully human anti-human B7-H3 antibodies were tested for their binding affinity to human B7-H3 (4Ig), human B7-H3 (2Ig), monkey B7-H3 (monkey B7-H3/CD276 protein, with His tag, Cat #: B73-C52Ha, ACROBiosystems) and mouse B7-H3 protein (mouse B7-H3/CD276 protein, with His tag, Cat #: B73-M52H4, ACROBiosystems) by surface plasmon resonance (SPR) using Biacore T200 biosensor (Biacore, US) provided with a pre-fixed Protein A sensor chip. Briefly, the anti-human B7-H3 antibodies (1 μg/mL) were injected to the Biacore T200 biosensor at 10 μL/min for 20 sec, to achieve the desired protein density (100±30 RU).
(§4) The data as generated was analyzed using Biacore Insight V2.0.1 5.12933 with the one-to-one Langmuir binding model. The association rate (kₒₙ) and dissociation rate (koff) were obtained at the same time. The affinity was calculated as the quotient of the two kinetic rate constants (KD=koff/kₒₙ).
As for B2, the binding result is “no binding (tested: 200 nM highest antigen concentration)”.

Consider B3, for which the binding result is given as “no binding (tested: 200 nM highest antigen concentration)”.

Another experiment concerns the target T4, human B7-H4 protein, with His tag (MALS verified) (human, UniProt Q7Z7D3 29-258, limits assumed).
T4 construct: Bought protein
T4 sequence (looked up): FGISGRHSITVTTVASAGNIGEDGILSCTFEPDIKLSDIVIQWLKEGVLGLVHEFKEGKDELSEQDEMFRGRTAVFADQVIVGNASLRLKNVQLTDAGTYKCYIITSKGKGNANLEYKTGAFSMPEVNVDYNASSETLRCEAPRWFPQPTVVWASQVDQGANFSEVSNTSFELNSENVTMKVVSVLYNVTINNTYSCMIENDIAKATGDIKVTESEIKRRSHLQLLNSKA
The description is as above. As for the experimental part: as §1, §2
B3: the binding result is “no binding (tested: 200 nM)”.

For the molecule B4, the binding result is listed as “no binding (tested: 200 nM)”.

Another experiment deals with T5, monkey B7-H3/CD276 protein, with His tag (monkey).
T5 construct: Bought protein
The experiment is described as follows: SPR (Biacore T200), antibody captured on Protein A chip, His-tagged antigen injected. As for the experimental part: as §3, §4
Consider B1, for which the affinity, expressed as Kd, was 1.14 nM; the koff – broadly, a measure of how fast the partners let go of each other – was 0.000295 s⁻¹; the kon (commonly a measure of how fast the partners come together) worked out at 258000 M⁻¹ s⁻¹.

Consider B2, for which the Kd (as a rule, a measure of binding affinity in units of concentration) stood at 0.966 nM; the koff turned out to be 0.000223 s⁻¹; the kon amounted to 231000 M⁻¹ s⁻¹.

B3 came in with a Kd of 49.5 nM, a dissociation rate constant (koff) of 0.0167 s⁻¹ and an on-rate (kon) of 337000 M⁻¹ s⁻¹.

The next experiment addresses T6, recombinant human B7-H3 (2Ig) protein, with His tag (human, UniProt Q5ZPR3-2 29-245, limits assumed).
T6 construct: Bought protein; also called human B7-H3/CD276 protein
T6 sequence (looked up): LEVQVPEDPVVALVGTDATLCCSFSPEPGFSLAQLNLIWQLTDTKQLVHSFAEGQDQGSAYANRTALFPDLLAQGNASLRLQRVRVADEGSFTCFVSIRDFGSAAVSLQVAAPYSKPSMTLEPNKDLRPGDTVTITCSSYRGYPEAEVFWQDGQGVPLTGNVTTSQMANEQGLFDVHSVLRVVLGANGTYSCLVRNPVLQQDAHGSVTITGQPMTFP
The experiment is described as above. As for the experimental part: as §3, §4
Take B1: the Kd worked out at 51.5 nM, the koff came to 0.00653 s⁻¹ and the kon came to 127000 M⁻¹ s⁻¹.

Turning to B2, the Kd stood at 275 nM, the koff amounted to 0.0203 s⁻¹ and the kon turned out to be 73700 M⁻¹ s⁻¹.

Take B3: the Kd was 386 nM, the koff came out at 0.0588 s⁻¹ and the kon turned out to be 152000 M⁻¹ s⁻¹.

With B4, the Kd worked out at 10.4 nM, the koff was determined as 0.000422 s⁻¹ and the kon was found to be 40500 M⁻¹ s⁻¹.

The target of another experiment is T7, recombinant human B7-H3 (4Ig) protein, with His tag (human, UniProt Q5ZPR3 29-461, limits assumed).
T7 construct: Bought protein; also called human B7-H3 (4Ig)/B7-H3b protein
T7 sequence (looked up): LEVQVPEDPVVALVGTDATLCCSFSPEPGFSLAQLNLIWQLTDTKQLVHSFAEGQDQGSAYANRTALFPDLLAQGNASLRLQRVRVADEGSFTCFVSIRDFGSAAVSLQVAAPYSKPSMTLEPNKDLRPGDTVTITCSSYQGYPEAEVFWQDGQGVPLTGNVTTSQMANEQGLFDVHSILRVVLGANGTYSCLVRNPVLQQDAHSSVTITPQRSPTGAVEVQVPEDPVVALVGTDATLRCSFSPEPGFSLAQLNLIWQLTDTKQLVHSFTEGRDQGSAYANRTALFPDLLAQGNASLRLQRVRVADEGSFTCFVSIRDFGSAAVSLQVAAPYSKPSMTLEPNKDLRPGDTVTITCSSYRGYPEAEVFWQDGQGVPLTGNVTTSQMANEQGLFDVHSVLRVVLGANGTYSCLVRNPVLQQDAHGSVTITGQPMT
Described as above. As for the experimental part:
as §3, §4
Turning to B1, the Kd is 1.26 nM, the koff stood at 0.00031 s⁻¹ and the kon was found to be 247000 M⁻¹ s⁻¹.

For B2, the Kd was determined as 1.11 nM, the koff turned out to be 0.000239 s⁻¹ and the on-rate constant (kon) worked out at 216000 M⁻¹ s⁻¹.

With B3, the Kd came out at 1.11 nM, the koff amounted to 0.000291 s⁻¹ and the kon was 263000 M⁻¹ s⁻¹.

As to B4, the Kd came out at 1.01 nM, the koff turned out to be 0.00011 s⁻¹ and the kon is 109000 M⁻¹ s⁻¹.
